Experimental data as given in paper PMC5648036.

Tested on: SerRS-Avi-biotin (human cytosolic seryl-tRNA synthetase) (Homo sapiens)
Experiment: SPR

WT tRNASer
Kd: 3.3 nM
